The target in the assay is T1, type IF CRISPR RNA guided surveillance complex (Csy) (UniProt Q02MM2 1-187).
T1 construct: Cas8f subunit (tail) of the type IF Csy complex; Csy1); Cas5 subunit (tail) of the type IF Csy complex; Csy2); Cas7 subunit (backbone, six copies Cas7.1f-Cas7.6f) of the type IF Csy complex; Csy3); Cas6f subunit (head) of the type IF Csy complex; Csy4); Ribonucleoprotein: also holds one crRNA (synthetic CRISPR, Addgene 89244); Purified on Ni-NTA, so one subunit carries a His tag; also called Csy …
In words: ITC; AcrIF9 or AcrIF2 binding to the Csy complex; conditions not told in the text shown (Supplemental Figure S8). To be noted: both partners purified. In general terms: In ITC the heat of successive injections is recorded.

Bounds are passed on as bounds.

B1: AcrIF9 (natural protein)
chain: MKAAYIIKEVQNINSEREGTQIEATSLSQAKRIASKEQCFHGTVMRIETVNGLWLAYKEDGKRWVDCQ
In turn, B1 came in with a dH of more than 0.

Source of the values: article PMC9638894, “Anti-CRISPR proteins function through thermodynamic tuning and allosteric regulation of CRISPR RNA-guided surveillance complex” (Nucleic Acids Research, 2022).
